Assay results as given in patent US20160130305A1.

How the values were obtained:
HLA DRB1*0101 (human) = assay: competition with radiolabeled probe peptide, purified MHC
HLA B*0702 (human) = assay: competition with radiolabeled probe peptide on purified HLA

NS52967-2981 (peptide; other documents disagree on this pair)
IC50 (HLA DRB1*0101 (human)): 48 nM

NS4B2296-2305 (peptide)
IC50 (HLA B*0702 (human)): > 1000 nM
